{"source": "the nanobody polyreactivity screen of Harvey et al. (2022)", "data": [{"test": "yeast display, Sf9 membrane polyspecificity reagent, FACS + sequencing; frameworks hold sequencing errors", "in_short": "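Galactose-induced (36–48 hours) yeast carrying a synthetic nanobody display library were exposed to 10% biotinylated, detergent-solubilized Sf9 membrane reagent at 4 °C for 1 hour. FACS followed streptavidin microbead enrichment, using low and high (top ~1%) gates for expression (anti-HA) and reagent binding (streptavidin). Colony PCR, MiSeq 2 × 250 sequencing and CDR-length filtering followed. Labels for polyreactivity reflect the gate of origin.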", "values": [{"sequence": "QVQLVESGGGLVQAGGSLRISCAASGSIFYENTMGWYRQAPGKEREFVAAISRSGGSTYYADSVKGRFTISRDNAKNTVYLQMNSLKPEDTAVYYCAARSRPGYAVYYWGQGTQVTVSS", "polyreactivity (PSR sort gate)": "high polyreactivity"}, {"sequence": "QVQLVESGVGLVQAGGSLRLSCAATGSIFRVNAMGWYRQAPGKERELVAGIRWRGGSTYYADSVKGRFTISRDNAKNTVYLQMNSLKPEDTAVYYCAARSYPFIATYGYWGQGTQVTVSS", "polyreactivity (PSR sort gate)": "high polyreactivity"}, {"sequence": "QVQLVESGGGLVQAGGSLRLSCAASGRIFSTYAMGWYRQAPGKERELVAAISWRGSSTYYADSVKGRFTISRDNAKNTVYLQMNSLKPEDTAVYYCNADKANRYDWGQGTQVTVSS", "polyreactivity (PSR sort gate)": "high polyreactivity"}, {"sequence": "QVQLVESGGGLVQAGGSLRLSCAASGRIFQYYAMGWYRQATGKERELVAAISRTGSPYYADSVKGRVTISRDNAKNTVSLQMNSLTPADTAVYFCAADYWPQSNRWVYFRYGYWGLGTQVTVSS", "polyreactivity (PSR sort gate)": "high polyreactivity"}, {"sequence": "QVQLVESGGVLVQAGGSLRLSCAASGIIFVYNPMGWYRPAPGKERELVAGISWNGVSTYYADSVKWRFTISRDYAKYTVYLQMNSLKPEDTAVYYCAASLWVYVGQARYLWYDYWGQGTQVTVSS", "polyreactivity (PSR sort gate)": "low polyreactivity"}, {"sequence": "QVQLVESGGGLVQAGGSLRLSCAASGRISKGYAMGWYRQAPGKERELVAAISWRTSSTYYADSVKGRFTISRDNAKNTVYLQMNSLKPEVTAVYYCAAETWLGSWRQVGMDYWGQGTQVTVSS", "polyreactivity (PSR sort gate)": "high polyreactivity"}, {"sequence": "QVQLVESGGGLFQAGGSLRLSCAASGFTFRANAMGWYRQAPGKERELVAVITGSGRTYYADSVKGRFTISRDNAKNTVYLQMNSLKPEDTAVYYCAARAAYRVSSPGYDSWGQGTQVTVSS", "polyreactivity (PSR sort gate)": "high polyreactivity"}, {"sequence": "QVQLVESGGGLVQAGGSLRLSCAASGLIFPIYAMGWYRPAPGKERELVAVITWSGGSTYYADSVKGRFTISRDNAKNTVYLQMNSLKPEDTAVYYCSVEWAYPYWYTYYLEDYWGQGTQVTVSS", "polyreactivity (PSR sort gate)": "low polyreactivity"}, {"sequence": "QVQLVESGGGLVKAGGSLRLSCAASGSTYQTYAMGWYRHAPGKERELVAAISFNGGSTYYADSVKGRFTISRDNAKNTVYLQMNSLKPEDTAVYYCAVEYTWASALYDGRHDYWGQGTQVTVSS", "polyreactivity (PSR sort gate)": "high polyreactivity"}, {"sequence": "QVQLVESGGGLVQAGGSLRLSCAASGRIFRPYTMGWYRQAPGKERELVAAITSGSSTNYADSVKGRFTISRDNAKNTVYLHMNSLKPEDTAVYYCAVKVRIFASYYPFYYWGQGSQVTVSS", "polyreactivity (PSR sort gate)": "high polyreactivity"}, {"sequence": "QVQLVESGGGLVQAGGSLRLSCAASGRTFRYYAMGWYRQAPGKERELVADISWSGGRTSYADSVKGRFTISRDNAKNTVYLQMNSLKPEDTAVYYCAKVLYYPSHVYWGQGTQVTVSS", "polyreactivity (PSR sort gate)": "high polyreactivity"}, {"sequence": "QGQLVESCGGLVQAGGSLRFICAASGSNFFSYAMGCYRQAPWKERELVASISRRGGTTYYADSVKGRFTISRDNAKNTVYLHMNSLKPDDTAVYYCAAKLLYGGRYGYWGQGTQVTVSS", "polyreactivity (PSR sort gate)": "high polyreactivity"}, {"sequence": "QVQLVESGGGLVQAGGSLRLSCAASGSTFGWYTMAWYRQAPGKERELVAAITSRGTRTSYADSVKGRFTISRDNAKNTVYLQMNSLKPEETAVYYCAARVFRGLGEYYWGQGTQVTVSS", "polyreactivity (PSR sort gate)": "high polyreactivity"}, {"sequence": "QVQLVESGGGLVQAGGRLRLSCAASGRIFLGNVMGWYRQAPGKERELVAAISSGGSTNYADSVKGRFTISRDNAKNTVYLQMNSLKPEDTAVYYCAAYFVRDWKLYYYWGQGTQVTVSS", "polyreactivity (PSR sort gate)": "low polyreactivity"}, {"sequence": "QLQLVESGGGLVQAGGSLRLSCAASGSTVAYNDMGWYRQAPGKERELVADIRSGGNTNYADSVKGRFTISRDNAKNTVYLQMNSLKTEDTAVYYCATDGYRIDVYHPDYRYDYWGQGTQVTVSS", "polyreactivity (PSR sort gate)": "low polyreactivity"}, {"sequence": "QLQLVESGGGLVQAGGSLRLSCAASGFTFRYYAMGWYRQAPGKERELVAAITRSGTTSYADSVKGRFTISRDNAKNTVYLQMNSLKPEDTAVYYCNTRVTGNRLGYYYWGQGTQVTVSS", "polyreactivity (PSR sort gate)": "high polyreactivity"}, {"sequence": "QVQLVESGGGLVQAGGSLRLICAASGSIFRYYAMGWYRQAPGKERELVADINGSGGSTYYADSVKGRFTISRDNAKNTVYLQMNSLKPEDTAVYYCATAYGWRRKYYGYDYCGQGTQVTVSS", "polyreactivity (PSR sort gate)": "high polyreactivity"}, {"sequence": "QVQLVESGGGLVQAGGSLRLSCAASGRIFQPYAMGWYRQAPGKERELVARITSGGSTYADSVKGRFTISRDNAKNTVYLQMNSLKPEDTAVYYCAVRYPWYYRGYAYDYWGQGTQVTVSS", "polyreactivity (PSR sort gate)": "high polyreactivity"}, {"sequence": "QVQLVESGGGLVQAGGSLRLSCAASGFTFRRYAMGRYRQAPGKERELVAAISRSTGSTYYADSVKGRFSLSRDNAKNSVYLQMNSLKPEDTAVFYCNVAGSARVNTLVLSYEYWGQGSQVTVSS", "polyreactivity (PSR sort gate)": "high polyreactivity"}, {"sequence": "QVQLVESGGGLVQAGGSLRLSCAASGSTFNKYAMGWYRPPPGKERELVAAISWTGGHTYYADSVKGRFTFSRDNAKNTVYLQMNSLKPEDTAVYYCNTVNSRPKYNYWGQGTQVTVSS", "polyreactivity (PSR sort gate)": "high polyreactivity"}, {"sequence": "QVQLVESGGGLVQAGGSLRLSCAASGRIFLYYAMGWYRQAPGKERELVATISSGGSTHYADSVKGRFTISRDNAKNTVYLQMNSLKPEDTAVYYCAAYGYGWGLEPSTTEMDYWGQGTQVTVSS", "polyreactivity (PSR sort gate)": "low polyreactivity"}, {"sequence": "QVQLVESGGGLVHAGGSHRLSCAASGTMGCYRQAPGKEMELVAAISQSGGSTYYADSVKGRFTISRDNAKNTVYLQMNSLKPEATAVYYCAVDPRYGHPRRDYWGQGTQVTVSS", "polyreactivity (PSR sort gate)": "low polyreactivity"}]}]}
